Laboratory results as given in patent US20170107569, “METHOD FOR ATTACHING ONE OR MORE POLYNUCLEOTIDE BINDING PROTEINS TO A TARGET POLYNUCLEOTIDE” (Oxford Nanopore Technologies Ltd., published 2017).

B1: DNA Y-adapter (Example 2) (mixed)
DNA 1: TTTTTTTTTTTTGGTTGTTTCTGTTGGTGCTGATATTGCGGCGTCTGCTTGGGTGTTTAACCT
DNA 2: GGTTAAACACCCAAGCAGACGCCGCAATATCAGCACCAACAGAAACAACCTTTGAGGCGAGCGGTCAA
modifications: 30 iSpC3 at 5' end of SEQ 27; 4 iSp18 between SEQ 27 and SEQ 28; 5' phosphate on SEQ 26
B2: helicase-leader Y-adapter (Example 7) (mixed)
DNA 1: B1 DNA 1
DNA 2: GCAATATCAGCACCAACAGAAACAACCTTTGAGGCGAGCGGTCAA
modifications: 30 iSpC3 at 5' end of SEQ 27; 4 iSp18 between SEQ 27 and SEQ 28

What was measured:
[1] = biological target: T1, T4 Dda-E94C/C109A/C136A/A360C helicase (UniProt P32270 SEQ:1-439, E94C/C109A/C136A/A360C); experiment: EMSA; native TBE PAGE; 50 mM HEPES, 100 mM KOAc pH 8, 1 mM EDTA, 100 uM TMAD; 2:1 and 1:1 complexes, single enzyme after KCl/ATP and SPRI; conditions: tags: closed with TMAD; Y-adapter, partly double-stranded
T1 sequence: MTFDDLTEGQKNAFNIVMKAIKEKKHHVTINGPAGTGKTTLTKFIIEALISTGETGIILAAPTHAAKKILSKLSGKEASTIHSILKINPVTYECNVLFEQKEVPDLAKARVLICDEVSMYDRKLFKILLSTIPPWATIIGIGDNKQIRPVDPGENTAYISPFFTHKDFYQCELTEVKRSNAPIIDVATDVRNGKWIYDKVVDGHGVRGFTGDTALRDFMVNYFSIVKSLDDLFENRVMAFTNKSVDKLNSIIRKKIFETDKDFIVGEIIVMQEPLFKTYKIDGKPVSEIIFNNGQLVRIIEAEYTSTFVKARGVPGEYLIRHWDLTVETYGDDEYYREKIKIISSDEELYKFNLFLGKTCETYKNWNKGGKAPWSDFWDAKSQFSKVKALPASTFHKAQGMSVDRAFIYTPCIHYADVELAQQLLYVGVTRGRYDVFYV
Experimental: T4 Dda—E94C/C109A/C136A/A360C (3 μM, SEQ ID NO: 24 with mutations E94C/C109A/C136A/A360C) and DNA Y-adapter (500 nM, SEQ ID NO: 26 was hybridised to DNA strand X=30 iSpC3 spacers attached at the 3′ end to the 5′ end SEQ ID NO: 27 which is attached at the 3′ end to 4 iSp18 spacers which are attached at the opposite end to the 5′ end of SEQ ID NO: 28) were mixed in buffer (50 mM HEPES, 100 mM KOAc (pH 8) and EDTA (1 mM) and TMAD (100 μM) were added and incubated for 60 minutes at room temperature. The mixture was then diluted 1:1 in KCl/ATP solution (500 mM KCl, 1 mM ATP final) and incubated at ambient temperature for 25 mins, this mixture was known as sample 3.
The resultant enzyme bound to DNA was then analysed using a TBE PAGE gel as described previously in Example 1 except the gel was run for 45 mins.

[2] = biological target: T1, T4 Dda-E94C/C109A/C136A/A360C helicase; experiment: EMSA; native TBE PAGE, band C; conditions: tags: closed with TMAD; Y-adapter, partly double-stranded
Experimental: Each sample run on the gel was 400 nM (5 μL). Lane 1 corresponded to a 100 bp ladder (the number of base pairs that the bands correspond to is shown along the side of the gel). Lane 2 corresponded to helicase leader complex shown in FIG. 12A, without the helicase bound. Lane 3 corresponded to the helicase leader complex shown in FIG. 12A with the helicase bound. Lane 4 corresponded to the polymerase strand complex shown in FIG. 12B without the polymerase bound. Lane 5 corresponded to the polymerase strand complex shown in FIG. 12B with the polymerase bound. Band A corresponded to SEQ ID NO: 43. Band B corresponded to DNA strand X=30 iSpC3 spacers attached at the 3′ end to the 5′ end SEQ ID NO: 27 which is attached at the 3′ end to 4 iSp18 spacers which are attached at the opposite end to the 5′ end of SEQ ID NO: 28. Band C corresponded to the helicase (T4 Dda—E94C/C109A/C136A/A360C) bound to DNA strand X. Band D corresponded to the polymerase strand complex without the enzyme bound (SEQ ID NO: 44 which was attached at its 3′ end to four iSpC3 spacers which were attached at the opposite end to the 5′ end of SEQ ID NO: 45). Band E corresponded to Phi29-A411C/Q560C bound to the polymerase strand complex.
The helicase-leader complex (diagram shown in FIG. 12 section A) was prepared as described in Example 2, except SEQ ID NO: 26 is replaced with SEQ ID NO: 43.

| Binder | binding result [1] | binding result [2] |
| --- | --- | --- |
| B1 | binds | – |
| B2 | – | binds |
